System: NX4-NS20-NX1 (X-NS20-X) (designed (from TALE PthXo1))
Assay: BLI
Details: BLI: 25 mM Tris (pH 7 for NS20, pH 8 for NS14), 150 mM NaCl, 10 mM MgCl2, 0.5% BSA, 0.5% Tween-20, 25 C, EMSA: 1% agarose, 1x TAE, 110 V

| Sequence | Kd (10 mM MgCl2, stated weak interactions, Kd > ~700 nM) [nM] | Kd [nM] |
| --- | --- | --- |
| AAAAAAATCAGACCGACATCTAATCCGCAACGA (double strand) [X-NS20-X random] | > 700 |  |
| AAAAAAATCTAGCAACCTCAAACAGACACCAGA (double strand) [X-NS20-X target] |  | 45 |

Reference: article PMC13381548
